# Results published in patent publication US20230140797A1 (published 2023).
# T1: human FcγRIIa type R extracellular domain with C-terminal His tag (human, UniProt P12318 34-217)
# T1 sequence (looked up): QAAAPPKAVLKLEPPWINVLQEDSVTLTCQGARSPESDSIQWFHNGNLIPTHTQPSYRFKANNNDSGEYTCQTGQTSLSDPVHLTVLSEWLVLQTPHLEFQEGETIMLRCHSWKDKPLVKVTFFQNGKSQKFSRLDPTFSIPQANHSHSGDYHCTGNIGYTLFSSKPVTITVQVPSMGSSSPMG
# T2: human FcγRIIa type H extracellular domain with C-terminal His tag (human, UniProt P12318 34-217)
# T2 sequence (looked up): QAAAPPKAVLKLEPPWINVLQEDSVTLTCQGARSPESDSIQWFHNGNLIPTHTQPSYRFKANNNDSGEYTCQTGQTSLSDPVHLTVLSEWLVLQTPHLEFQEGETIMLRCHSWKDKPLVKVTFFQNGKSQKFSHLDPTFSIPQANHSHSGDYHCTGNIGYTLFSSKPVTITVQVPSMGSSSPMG
# T3: human FcγRIIb extracellular domain with C-terminal His tag (human, UniProt P31994 43-217)
# T3 sequence (looked up): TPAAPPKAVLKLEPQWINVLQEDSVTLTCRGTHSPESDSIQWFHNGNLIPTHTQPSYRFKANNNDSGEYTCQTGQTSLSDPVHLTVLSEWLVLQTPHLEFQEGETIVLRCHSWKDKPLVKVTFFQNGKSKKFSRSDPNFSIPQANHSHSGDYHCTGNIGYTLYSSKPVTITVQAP
# Key:
# Assay in all cases: SPR
# [1] = biological target: T1, human FcγRIIa type R extracellular …
# [2] = biological target: human FcγRIIIa type V extracellular domain with C-terminal His tag (human, UniProt P08637 17-208)
# [3] = biological target: T2, human FcγRIIa type H extracellular …
# [4] = biological target: human FcγRIa extracellular domain with C-terminal His tag (human, UniProt P12314 16-292)
# [5] = biological target: T3, human FcγRIIb extracellular domain with …
# [6] = biological target: T3, human FcγRIIb extracellular domain with …; remark: listed apart in the source
# human FcγRIa extracellular domain with C-terminal His tag, sequence (P12314 16-292): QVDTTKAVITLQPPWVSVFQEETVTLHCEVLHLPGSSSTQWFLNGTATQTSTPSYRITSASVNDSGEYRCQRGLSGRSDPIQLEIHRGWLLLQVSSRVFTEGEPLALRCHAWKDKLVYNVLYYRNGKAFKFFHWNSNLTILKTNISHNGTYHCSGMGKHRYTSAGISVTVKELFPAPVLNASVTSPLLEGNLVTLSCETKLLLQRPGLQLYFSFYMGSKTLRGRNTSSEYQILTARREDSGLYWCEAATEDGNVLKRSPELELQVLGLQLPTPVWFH
# human FcγRIIIa type V extracellular domain with C-terminal His tag, sequence (P08637 17-208 F176V): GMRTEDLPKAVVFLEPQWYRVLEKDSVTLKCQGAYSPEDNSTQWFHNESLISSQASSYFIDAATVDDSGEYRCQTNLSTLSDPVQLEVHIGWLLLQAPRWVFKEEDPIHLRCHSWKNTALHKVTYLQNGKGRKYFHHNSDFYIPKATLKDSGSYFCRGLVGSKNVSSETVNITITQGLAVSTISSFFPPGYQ
binder,measurement,setting,value
"IL6R-BP132/IL6R-L (antibody, human IgG1, kappa) heavy: QVQLQESGPGLVKPSETLSLTCAVSGHSISHDHAWSWVRQPPGEGLEWIGFISYSGITNYNPSLQGRVTISRDNSKNTLYLQMNSLRAEDTAVYYCARSLARTTAMDYWGEGTLVTVSSASTKGPSVFPLAPSSKSTSGGTAALGCLVKDYFPEPVTVSWNSGALTSGVHTFPAVLQSSGLYSLSSVVTVPSSSLGTQTYICNVNHKPSNTKVDKKVEPKSCDKTHTCPPCPAPDLLGGDSVFLFPPKPKDTLMISRTPEVTCVVVDVSHEDPEVKFNWYVDGVEVHNAKTKPREEQYNSTYRVVSVLTVLHQDWLNGKEYKCKVSNAALPKPIEKTISKAKGQPREPQVYTLPPSRDELTKNQVSLTCLVKGFYPSDIAVEWESNGQPENNYKTTPPVLDSDGSFFLYSKLTVDKSRWQQGNVFSCSVMHEALHNHYTQESLSLSP light: not shown",Kd,[1],80 µM
"IL6R-BP133/IL6R-L (antibody, human IgG1, kappa) heavy: QVQLQESGPGLVKPSETLSLTCAVSGHSISHDHAWSWVRQPPGEGLEWIGFISYSGITNYNPSLQGRVTISRDNSKNTLYLQMNSLRAEDTAVYYCARSLARTTAMDYWGEGTLVTVSSASTKGPSVFPLAPSSKSTSGGTAALGCLVKDYFPEPVTVSWNSGALTSGVHTFPAVLQSSGLYSLSSVVTVPSSSLGTQTYICNVNHKPSNTKVDKKVEPKSCDKTHTCPPCPAPDYLGGDSVFLFPPKPKDTLMISRTPEVTCVVVDVSHEDPEVKFNWYVDGVEVHNAKTKPREEQYNSTYRVVSVLTVLHQDWLNGKEYKCKVSNKALPKPIEKTISKAKGQPREPQVYTLPPSRDELTKNQVSLTCLVKGFYPSDIAVEWESNGQPENNYKTTPPVLDSDGSFFLYSKLTVDKSRWQQGNVFSCSVMHEALHNHYTQESLSLSP light: not shown",Kd,[2],69 µM
"IL6R-BP149/IL6R-L (antibody, human IgG1, kappa) heavy: QVQLQESGPGLVKPSETLSLTCAVSGHSISHDHAWSWVRQPPGEGLEWIGFISYSGITNYNPSLQGRVTISRDNSKNTLYLQMNSLRAEDTAVYYCARSLARTTAMDYWGEGTLVTVSSASTKGPSVFPLAPSSKSTSGGTAALGCLVKDYFPEPVTVSWNSGALTSGVHTFPAVLQSSGLYSLSSVVTVPSSSLGTQTYICNVNHKPSNTKVDKKVEPKSCDKTHTCPPCPAPDYLGDDSVFLFPPKPKDTLMISRTPEVTCVVVDVSHEDPEVKFNWYVDGVEVHNAKTKPREEQDNSTYRVVSVLTVLHQDWLNGKEYKCKVSNAALPKPIEKTISKAKGQPREPQVYTLPPSRDELTKNQVSLTCLVKGFYPSDIAVEWESNGQPENNYKTTPPVLDSDGSFFLYSKLTVDKSRWQQGNVFSCSVMHEALHNHYTQESLSLSP light: not shown",Kd,[1],14 µM
"IL6R-BP176/IL6R-L (antibody, human IgG1, kappa) heavy: QVQLQESGPGLVKPSETLSLTCAVSGHSISHDHAWSWVRQPPGEGLEWIGFISYSGITNYNPSLQGRVTISRDNSKNTLYLQMNSLRAEDTAVYYCARSLARTTAMDYWGEGTLVTVSSASTKGPSVFPLAPSSKSTSGGTAALGCLVKDYFPEPVTVSWNSGALTSGVHTFPAVLQSSGLYSLSSVVTVPSSSLGTQTYICNVNHKPSNTKVDKKVEPKSCDKTHTCPPCPAPDLLGGDSVFLFPPKPKDTLMISRTPEVTCVVVDVSHEDPEVKFNWYVDGVEVHNAKTKPREEQYNSTYRVVSVLTVLHQDWLNGKEYKCKVSNDALPKPIEKTISKAKGQPREPQVYTLPPSRDELTKNQVSLTCLVKGFYPSDIAVEWESNGQPENNYKTTPPVLDSDGSFFLYSKLTVDKSRWQQGNVFSCSVMHEALHNHYTQESLSLSP light: not shown",Kd,[2],0.054 µM
"IL6R-BP179/IL6R-L (antibody, human IgG1, kappa) heavy: QVQLQESGPGLVKPSETLSLTCAVSGHSISHDHAWSWVRQPPGEGLEWIGFISYSGITNYNPSLQGRVTISRDNSKNTLYLQMNSLRAEDTAVYYCARSLARTTAMDYWGEGTLVTVSSASTKGPSVFPLAPSSKSTSGGTAALGCLVKDYFPEPVTVSWNSGALTSGVHTFPAVLQSSGLYSLSSVVTVPSSSLGTQTYICNVNHKPSNTKVDKKVEPKSCDKTHTCPPCPAPELLGDDSVFLFPPKPKDTLMISRTPEVTCVVVDVSHEDGEVKFNWYVDGVEVHNAKTKPREEQYNSTYRVVSVLTVLHQDWLNGKEYKCKVSNAALPKPIEKTISKAKGQPREPQVYTLPPSRDELTKNQVSLTCLVKGFYPSDIAVEWESNGQPENNYKTTPPVLDSDGSFFLYSKLTVDKSRWQQGNVFSCSVMHEALHNHYTQESLSLSP light: not shown",Kd,[3],18 µM
"IL6R-BP181/IL6R-L (antibody, human IgG1, kappa) heavy: QVQLQESGPGLVKPSETLSLTCAVSGHSISHDHAWSWVRQPPGEGLEWIGFISYSGITNYNPSLQGRVTISRDNSKNTLYLQMNSLRAEDTAVYYCARSLARTTAMDYWGEGTLVTVSSASTKGPSVFPLAPSSKSTSGGTAALGCLVKDYFPEPVTVSWNSGALTSGVHTFPAVLQSSGLYSLSSVVTVPSSSLGTQTYICNVNHKPSNTKVDKKVEPKSCDKTHTCPPCPAPDLLGGDSVFLFPPKPKDTLMISRTPEVTCVVVDVSHEDGEVKFNWYVDGVEVHNAKTKPREEQYNSTYRVVSVLTVLHQDWLNGKEYKCKVSNAALPKPIEKTISKAKGQPREPQVYTLPPSRDELTKNQVSLTCLVKGFYPSDIAVEWESNGQPENNYKTTPPVLDSDGSFFLYSKLTVDKSRWQQGNVFSCSVMHEALHNHYTQESLSLSP light: not shown",Kd,[3],28 µM
"BP549 (antibody, human IgG1, kappa) heavy: QVQLQESGPGLVKPSETLSLTCAVSGHSISHDHAWSWVRQPPGEGLEWIGFISYSGITNYNPSLQGRVTISRDNSKNTLYLQMNSLRAEDTAVYYCARSLARTTAMDYWGEGTLVTVSSASTKGPSVFPLAPSSKSTSGGTAALGCLVKDYFPEPVTVSWNSGALTSGVHTFPAVLQSSGLYSLSSVVTVPSSSLGTQTYICNVNHKPSNTKVDKKVEPKSCDKTHTCPPCPAPELLGDDSVFLFPPKPKDTLMISRTPEVTCVVVDVGEEDGEVKFNWYVDGVEVHNAKTKPREEQYNSTYRVVSVLTVLHQDWLNGKEYKCKVSNKALPRPIEKTISKAKGQPREPQVYTLPPSRDELTKNQVSLTCLVKGFYPSDIAVEWESNGQPENNYKTTPPVLDSDGSFFLYSKLTVDKSRWQQGNVFSCSVMHEALHNHYTQESLSLSP light: not shown",Kd,[4],1.8 µM
same,KD (IIaR)/KD (IIb),[5],35.9
same,KD (IIaH)/KD (IIb),[6],696
"IL6R-BP535/IL6R-L (antibody, human IgG1, kappa) heavy: QVQLQESGPGLVKPSETLSLTCAVSGHSISHDHAWSWVRQPPGEGLEWIGFISYSGITNYNPSLQGRVTISRDNSKNTLYLQMNSLRAEDTAVYYCARSLARTTAMDYWGEGTLVTVSSASTKGPSVFPLAPSSKSTSGGTAALGCLVKDYFPEPVTVSWNSGALTSGVHTFPAVLQSSGLYSLSSVVTVPSSSLGTQTYICNVNHKPSNTKVDKKVEPKSCDKTHTCPPCPAPDLLGDDSVFLFPPKPKDTLMISRTPEVTCVVIDVGEEDGEVKFNWYVDGVEVHNAKTKPREEQDNSTYRVVSVLTVLHQDWLNGKEYKCKVSNKGLPRPIEKTISKAKGQPREPQVYTLPPSRDELTKNQVSLTCLVKGFYPSDIAVEWESNGQPENNYKTTPMVLDSDGSFFLYSKLTVDKSRWQQGNVFSCSVMHEALHNHYTQESLSLSP light: not shown",Kd,[4],0.0011 µM
"IL6R-BP556/IL6R-L (antibody, human IgG1, kappa) heavy: QVQLQESGPGLVKPSETLSLTCAVSGHSISHDHAWSWVRQPPGEGLEWIGFISYSGITNYNPSLQGRVTISRDNSKNTLYLQMNSLRAEDTAVYYCARSLARTTAMDYWGEGTLVTVSSASTKGPSVFPLAPSSKSTSGGTAALGCLVKDYFPEPVTVSWNSGALTSGVHTFPAVLQSSGLYSLSSVVTVPSSSLGTQTYICNVNHKPSNTKVDKKVEPKSCDKTHTCPPCPAPELLGDDSVFLFPPKPKDTLMISRTPEVTCVVIDVGEEDGEVKFNWYVDGVEVHNAKTKPREEQDNSTYRVVSVLTVLHQDWLNGKEYKCKVSNKALPRPIEKTISKAKGQPREPQVYTLPPSRDELTKNQVSLTCLVKGFYPSDIAVEWESNGQPENNYKTTPPVLDSDGSFFLYSKLTVDKSRWQQGNVFSCSVMHEALHNHYTQESLSLSP light: not shown",Kd,[4],0.049 µM
same,KD (IIaR)/KD (IIb),[5],35.4
same,KD (IIaH)/KD (IIb),[6],692
